No end group written: not given here.
Assays:
[1] = biological target: T1, CN-NFATc2 interaction (GST-NFATc2) (Homo sapiens, UniProt P63098+Q08209); experiment: In vitro competition of CN binding to GST-NFATc2 by synthetic peptides
T1 construct: purchased Sigma
Description: (§1) The GST fusion proteins were expressed in the protease-deficient strain of E. coli BL2(DE3). They were purified using the glutathione (GSH)-Sepharose B beads reagent (Amersham Biosciences). The binding of CN to these GST fusion proteins was used to carry out pull-down tests, which were performed as explained below. A variable amount of the beads which contained the GST fusion proteins fused to the regulatory NFAT domains (1-2 μg) or to the peptides (10-30 μg). These were washed twice with the binding buffer (20 mM Tris pH 8, 100 mM NaCl, 1.5 mM CaCl2, 6 mM MgCl2, 1 mM PMSF, 1 μm DTT, 1 μg/ml of aprotinine, 1 μg/ml of pepstatin, 100 μM of benzamidine and 0.2% of Triton X-100) and were subsequently incubated during 30 min. in a rotary shaker at 4° C. with a solution of 20 nM of Calcineurin (Sigma) plus 600 nM of Calmodulin (Sigma) in a binding buffer with or without the corresponding peptide. Subsequently, the samples were centrifuged briefly at 4° C. Laemmli buffer was added to the supernatants (unbound fraction), which were set aside for later analysis. The beads were washed five times with cold, recently prepared binding buffer and Laemmli buffer was added; the samples were boiled to separate the bound proteins (bound fraction). The bound and unbound fractions were loaded onto 10% SDS-polyacrylamide gels and were separated by electrophoresis under reducing conditions. The Calcineurin was detected by Western blot using an anti-CnA monoclonal mouse antibody (clone G182-1847, PharMingen). Where indicated, the amount of CN bound to the GST fusion proteins was quantified by densitometry using the Quantity One program (BIO-RAD).

[2] = biological target: T2, GST-LxVPc1-CN interaction (Homo sapiens, UniProt P63098+Q08209); experiment: Cross-competition of GST-LxVPc1-CN interaction (FIG. 7); type: binding; settings: free competitor peptide, VIVIT 12 μM
T2 construct: purchased Sigma
Description: as §1, with “The beads were washed five times with cold, recently prepared binding buffer and Laemmli buffer was added; the samples were boiled to separate the bound proteins (bound fraction). The bound and unbound fractions were loaded onto 10% SDS-polyacrylamide gels and were separated by electrophoresis under reducing conditions.” left out

[3] = biological target: T3, CN (Calcineurin) phosphatase activity on RII phosphopeptide (Homo sapiens, UniProt P63098+Q08209); experiment: Phosphatase activity assay of CN on RII substrate; type: biochemical; settings: in vitro, FIG. 9
T3 construct: purchased Biomol
Description: The effect of the peptides mentioned (Example 7, FIG. 9) on the enzymatic activity of CN on the RII peptide was analysed using the “Biomol Green Calcineurin” assay kit by Biomol in accordance with the manufacturer's instructions. The combination of CsA (Sandoz) plus cyclophilin (CyP) (Sigma) was used to inhibit Calcineurin activity in vitro.

[4] = biological target: T4, human CN (Homo sapiens, UniProt P63098+Q08209); experiment: Phosphatase activity assay of CN on pNPP; type: biochemical; settings: pNPP substrate; 0.01 mM
T4 construct: made in house; host or cells: bacteria
T4 sequence (P63098 whole entry, other chains not shown): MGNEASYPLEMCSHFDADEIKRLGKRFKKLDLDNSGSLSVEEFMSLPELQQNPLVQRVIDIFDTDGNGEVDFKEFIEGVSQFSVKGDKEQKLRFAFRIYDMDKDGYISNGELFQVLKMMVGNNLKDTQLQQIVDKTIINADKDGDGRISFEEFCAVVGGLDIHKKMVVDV
Description: Phosphatase Activity Assay of CN on pNPP (Paranitrophenylphosphate).
The quantity of the product of the enzymatic reaction at basic pH (paranitrophenolate=PNP) was measured by absorbance at 405 nm, converting this numerical value to a concentration by means of interpolation from a straight-line PNP pattern.

[5] = system: NFATc2 dephosphorylation in HeLa cells; experiment: NFATc2 dephosphorylation in transfected HeLa cells (Western blot); type: cell-based; settings: HeLa co-transfected with HA-NFATc2; PMA + calcium ionophore 1 hour, FIG. 8A
Description: The HeLa cells were cultivated in Dulbecco medium modified by Eagle (DMEM) (Gibco) completed with 10% bovine foetal serum (FBS) (Sigma). The day prior to transfection, the cells were seeded in 6-well plates in order to reach an 80% confluence at the moment of transfection. The cells were transfected with 18 ng of pEF-BOS HA-NFATc2 plus 1.1 μg of the GFP-peptide plasmids with 4 μl of Plus reagent plus 6 μl of Lipofectamine reagent (Invitrogen) for 3 hours in 1 ml of OPTIMEM medium (Gibco). By means of flow cytometry, the transfection efficiency and the percentage of cells which expressed GFP were quantified. Similar transfection efficiencies were obtained for the different constructs and in independent experiments.
Twenty-four hours after the transfection, the HeLa culture medium was replaced by DMEM+1% FBS. After a further two hours, the cells were stimulated during 1 hour using 20 ng/ml of PMA (phorbol 12 myristrate 13 acetate) (Sigma) plus 1 μM of calcium ionophore A23187 (Sigma) and 3 mM of CaCl2. […] After three washes with PBS-T and one additional wash with H2O, the antibody bound to the membranes was detected by means of the ECL system (Amersham Biosciences).

[6] = system: nuclear translocation of NFATc2 in HeLa cells; experiment: Subcellular localisation of NFATc2 in transfected HeLa cells (immunofluorescence); type: cell-based; settings: HeLa co-transfected with HA-NFATc2; calcium ionophore 30 min, FIG. 8B
Description: The HeLa cells were transfected as described in the previous section using 1.2 μg of the GFP-peptide expression plasmids with 40 ng of pEF-BOS HA-NFATc2. Two hours before the stimulation, the culture medium was replaced with DMEM+1% FBS. After stimulating during 30 min. with calcium ionophore A23187 (1 μm) and CaCl2 (3 mM), the cells were fixed at ambient temperature during 10 min. with a 10% solution of formaldehyde in PBS containing 4% saccharose. Subsequently, they were washed three times with PBS and were permeabilised at ambient temperature during 10 min. with a solution of PBS with 0.25% of Triton X-100. The cells were subsequently incubated during 20 min. with a blocking buffer (10% BSA in PBS) and subsequently with a 1:500 solution of the 12CA5 antibody (anti-HA) during one hour. The subcellular localisation of the NFATS was detected using a fluorescence microscope (Axiovert-200, Zeiss) using a mouse anti-IgG conjugated with the Alexa 594 fluorochrome (Molecular Probes) as a secondary antibody. The percentage of cells with nuclear or cytosolic distribution of NFAT was calculated using not less than 130 positive cells per transfection.

[7] = biological target: T5, CN (Calcineurin) (UniProt P48452+P63098); experiment: Pull-down of CN by GST-peptide fusion proteins (FIG. 3); type: binding; settings: Western blot
T5 construct: purchased Sigma
Description: as §1, with “The beads were washed five times with cold, recently prepared binding buffer and Laemmli buffer was added; the samples were boiled to separate the bound proteins (bound fraction). The bound and unbound fractions were loaded onto 10% SDS-polyacrylamide gels and were separated by electrophoresis under reducing conditions.” left out

[8] = biological target: T6, CN-NFATc1 interaction (GST-NFATc1) (Homo sapiens, UniProt P63098+Q08209); experiment: In vitro competition of CN binding to GST-NFATc1 by synthetic peptides
T6 construct: purchased Sigma
Description: as §1, with “The beads were washed five times with cold, recently prepared binding buffer and Laemmli buffer was added; the samples were boiled to separate the bound proteins (bound fraction). The bound and unbound fractions were loaded onto 10% SDS-polyacrylamide gels and were separated by electrophoresis under reducing conditions.” left out

[9] = summary of LxVP and PxIxIT peptides

Substance: PxIxITc2: PxIxIT peptide corresponding to NFATc2 (SGLSPRIEITPSHEL)
- competition of GST-NFATc2 binding to CN ([1]; 50 μM peptide, dose-dependent competition, FIG. 5): only a partial inhibiting effect
- competition of CN binding to GST-NFATc2 ([1]; 100 μM peptide, FIG. 4B): efficiently blocked the interaction of CN with NFATc2
- competition of binding of CN to GST-LxVPc1 [2]: competed the binding of CN to GST-LxVPc1
- effect on phosphatase activity of CN on RII peptide [3]: failed in the inhibition of phosphatase activity

Substance: CypA: cyclophilin A, immunophilin, used separately as negative control
- % CN activity [4]: 103.3 ± 7.1%

Substance: GFP-LxVPc1: GFP fusion protein with the LxVP peptide of NFATc1, expressed in HeLa cells
- effect on induced NFATc2 dephosphorylation [5]: blocked induced NFATc2 dephosphorylation
- cells with cytosolic NFATc2 staining [6]: 77%

Substance: GST-LxVPc2: GST protein fused with the LxVP motif of NFATc2 (SILLVPPTWPKPLVP; also: fused to GST protein)
- amount of CN bound to GST-peptide fusion protein [7]: incapable of binding CN

Substance: LxVPc2: NFATc2-specific LxVP peptide (SILLVPPTWPKPLVP)
- competition of CN binding to GST-NFATc2 ([1]; 100 μM peptide, FIG. 4B): incapable of affecting the binding
- competition of CN binding to GST-NFATc2 ([1]; competitor peptides at 32 μM or 200 μM, FIG. 4A): incapable of competing the binding of NFATc2 to CN
- competition of CN binding to GST-NFATc2 ([1]; concentrations as high as 300 μM, FIG. 4B): partial inhibition
- competition of in vitro interaction of CN with NFATc2, overall [1, 9]: did not efficiently compete
- competition of GST-NFATc1 interaction with CN ([8]; 32 μM peptide, FIG. 6A): not capable of altering the NFAT-CN binding
- competition of in vitro interaction of CN with NFATc1, overall [8, 9]: did not efficiently compete

Substance: PxIxITc1: PxIxIT peptide corresponding to NFATc1 (ALESPRIEITSCLGL)
- competition of CN binding to GST-NFATc2 ([1]; 100 μM peptide, FIG. 4B): efficiently blocked the interaction of CN with NFATc2

Substance: GFP-LxVPc2: GFP fusion protein with the LxVP peptide of NFATc2 (SILLVPPTWPKPLVP; also: GFP fusion protein)
- effect on induced NFATc2 dephosphorylation [5]: had no effect

Source: patent US20100081624A1, “SELECTIVE PEPTIDES THAT INHIBIT THE BIOLOGICAL ACTIVITY OF CALCINEURIN” (Consejo Superior de Investigaciones Cientficas, priority 2005, published 2010)
